Residue numbers refer to the chain shown, from its start.
B1: Hu6C12-24 (antibody, V domains shown)
VH: EVQLVQSGAEVKKPGASVKVSCKASGYTFTTYTIHWVRQAPGQGLEWIGYINPSSDYTRYNPKFKDRVTLTTDKSTSTAYMELRSLRSDDTAVYYCQTGTRDYWGQGTTVTVSS
VL: DIQLTQSPSFLSASVGDRVTITCSAASSVSYIYWFQQKPGKAPKLLIYSTSTLPSGVPSRFSGSGSGTEYTLTISSLQPEDFATYYCHQRNSFPFTFGQGTKLEIK
notes: IgG format; VH.1g + Vk.1b
B2: Hu6C12-23 (antibody, V domains shown)
VH: B1 VH with I48M, K74T
VL: B1 VL
notes: IgG format; VH.1f + Vk.1b
B3: Hu6C12-16 (antibody, V domains shown)
VH: B1 VH
VL: B1 VL with F35Y
notes: IgG format; VH.1g + Vk.1a
B4: Hu6C12-22 (antibody, V domains shown)
VH: B1 VH with I48M, K74T, Q97A
VL: B1 VL
notes: IgG format; VH.1e + Vk.1b
B5: Hu6C12-7 (antibody, V domains shown)
VH: B1 VH
VL: B1 VL with F35Y, Y70F
notes: IgG format; VH.1g + Vk.1
B6: Hu6C12-6 (antibody, V domains shown)
VH: B1 VH with I48M, K74T
VL: B1 VL with F35Y, Y70F
notes: IgG format; VH.1f + Vk.1
B7: Hu6C12-19 (antibody, V domains shown)
VH: B1 VH with I48M, L70M, K74T, Q97A
VL: B1 VL
notes: IgG format; VH.1b + Vk.1b
B8: Hu6C12-20 (antibody, V domains shown)
VH: B1 VH with I48M, L70M, K74T
VL: B1 VL
notes: IgG format; VH.1c + Vk.1b
B9: TPP-7776, affinity matured 6C12 Fab (Fab, V domains shown)
VH: B1 VH with T33A, I48M, D56G, D66G, L70M, T72R
VL: B1 VL with S24R, A26S, S30R, S49A, P54R, F95Y
notes: Tested as Fab
B10: TPP-7789, affinity matured 6C12 Fab (Fab, V domains shown)
VH: B1 VH with I48M, D56G, D66H, L70M, T72R, Q97W
VL: B1 VL with S24R, A26S, S30R, S49A, P54Q, F95Y
notes: Tested as Fab
B11: TPP-7788, affinity matured 6C12 Fab (Fab, V domains shown)
VH: B1 VH with I48M, S54K, D56G, Y57W, D66G, L70M, T72R
VL: B1 VL with S24R, A26S, S49A, T52F, L53R, P54Q, F95Y
notes: Tested as Fab
B12: TPP-7777, affinity matured 6C12 Fab (Fab, V domains shown)
VH: B1 VH with I48M, D56G, Y57W, D66G, L70M, T72R, Q97W, T100R
VL: B1 VL with S24R, A26S, S49A, L53R, P54Q, F95Y
notes: Tested as Fab
B13: TPP-7787, affinity matured 6C12 Fab (Fab, V domains shown)
VH: B1 VH with T33A, I48M, D56G, D66G, L70M, T72R, Q97W
VL: B1 VL with S24R, A26S, S49A, L53R, P54Q, F95Y
notes: Tested as Fab

These binders were tested against T1, purified human glycophorin A protein (Sigma, cat # G5017) (human, UniProt P02724 20-150) (assay: ELISA, IgG).
T1 construct: mature; also called Sigma hGPA; Sigma GPA
T1 sequence (looked up): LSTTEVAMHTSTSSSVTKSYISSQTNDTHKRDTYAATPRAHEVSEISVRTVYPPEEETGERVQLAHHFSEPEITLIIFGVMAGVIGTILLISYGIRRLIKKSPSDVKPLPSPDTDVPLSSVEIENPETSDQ

Binder	EC50 [pM]
B1	282
B2	374
B3	4800
B4	886
B5	1780
B6	3460
B7	876
B8	393

Each binder was assayed against T2, Cynomolgus monkey glycophorin A on Cynomolgus monkey red blood cells (Cynomolgus monkey) (assay: FACS, RBC Cy01).
T2 construct: whole, on cells; also called Cyno RBC; Cyno GPA
Protocol: (§1) The binding of the humanized variants to intact red blood cells (RBC) from humans (Hu01 to 03; 3 individuals), Rhesus monkey (Rh01 to 03; 3 individuals) and Cynomolgus monkey (Cy01 to 02; 2 individuals) was measured by fluorescence activated cell sorting (FACS).

Binder	fluorescence intensity
B1	1660
B2	1140
B3	1270
B4	991
B5	1360
B6	1060
B7	1040
B8	1070

What follows are binders tested against T2, Cynomolgus monkey glycophorin A on … (assay: FACS, RBC Cy02).
Protocol: as §1

Binder	fluorescence intensity
B1	1770
B2	1320
B3	1360
B4	1170
B5	1430
B6	1100
B7	1240
B8	1250

Each binder was assayed against T3, human glycophorin A in the red blood cell membrane (human, UniProt P02724 20-150) (assay: FACS, RBC Hu01).
T3 construct: whole, on cells; used for intact RBC, isolated RBC membranes and transfected cells; the assay field tells which; also called GPA; hGPA
T3 sequence (looked up): T1 sequence (looked up)
Protocol: as §1

Binder	fluorescence intensity
B1	2250
B2	1680
B3	895
B4	1570
B5	1230
B6	909
B7	1630
B8	1670

The binders below were run against T3, human glycophorin A in the red blood … (assay: FACS, RBC Hu02).
Protocol: as §1

Binder	fluorescence intensity
B1	1850
B2	1300
B3	637
B4	1170
B5	945
B6	634
B7	1270
B8	1300

The binders below were run against T3, human glycophorin A in the red blood … (assay: FACS, RBC Hu03).
Protocol: as §1

Binder	fluorescence intensity
B1	2100
B2	1460
B3	786
B4	1330
B5	1100
B6	786
B7	1440
B8	1460

What follows are binders tested against T4, Rhesus monkey glycophorin A on Rhesus monkey red blood cells (Rhesus monkey, UniProt A0A1D5Q349 20-150) (assay: FACS, RBC Rh01).
T4 construct: whole, on cells; also called Rhesus RBC; monkey GPA
T4 sequence: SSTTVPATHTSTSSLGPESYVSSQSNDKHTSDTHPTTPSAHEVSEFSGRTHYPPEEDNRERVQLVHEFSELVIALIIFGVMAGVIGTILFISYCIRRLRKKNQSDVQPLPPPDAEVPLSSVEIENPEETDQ
Protocol: as §1

Binder	fluorescence intensity
B1	2330
B2	1710
B3	2000
B4	1530
B5	2060
B6	1640
B7	1620
B8	1670

Each binder was assayed against T4, Rhesus monkey glycophorin A on Rhesus … (assay: FACS, RBC Rh02).

Binder	fluorescence intensity
B1	2540
B2	1680
B3	1860
B4	1490
B5	1940
B6	1520
B7	1510
B8	1620

The binders below were run against T4, Rhesus monkey glycophorin A on Rhesus … (assay: FACS, RBC Rh03).
Protocol: as §1

Binder	fluorescence intensity
B1	2370
B2	1700
B3	1870
B4	1450
B5	1920
B6	1540
B7	1520
B8	1550

These binders were tested against T5, human glycophorin A on human red blood cells or red blood cell membranes (human, UniProt P02724 20-150) (assay: SPR (Biacore), Fab on human RBC membranes;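 note: human RBC membranes captured on an L1 sensor chip, Fab fragments passed over as analyte, binding kinetics read by surface plasmon resonance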).
T5 construct: whole, on cells; also called hRBC; human RBC membranes
T5 sequence (looked up): T1 sequence (looked up)
Protocol: (§2) Kinetic analysis of the antibody binding to human red blood cell membranes was also performed using surface plasmon resonance (SPR) using a Biacore instrument. In this assay membranes prepared from human red blood cells were attached to a L1 sensor matrix and antibodies were flowed over the RBC membranes.
(§3) The binding kinetics of the affinity matured Fab antibodies was also measured.

Binder	Kd [pM]	koff [s⁻¹]	kon [M⁻¹ s⁻¹]
B9	82.9	0.00097	–
B10	7.99	0.000128	–
B11	136	0.000413	3.03e+06
B12	49.9	0.000371	7.44e+06
B13	22.2	0.000139	6.25e+06

What follows are binders tested against T5, human glycophorin A on human red blood … (assay: SPR (Biacore), Fab on human RBC membranes; T½ = 0.69/kd).
Protocol: as §2, §3

Binder	Estimated T½ [min]
B9	12
B10	90
B11	28
B12	31
B13	83

Each binder was assayed against T5, human glycophorin A on human red blood … (assay: SPR (Biacore), Fab on human RBC membranes; * not accurate, instrument limit).
Protocol: as §2, §3

Binder	kon [M⁻¹ s⁻¹]
B9	1.17e+07
B10	1.61e+07

— patent US20190359687A1 (Bayer, published 2019)
